Test results taken from the DeepSol protein solubility set.

Assay: soluble on expression in E. coli; label from the status in PepcDB or PDB records

MGSDKIHHHHHHMKYNPHKYQTYATNFILEHPIAAVFLEMGLGKSVITLTAIFDLCLDSFEIGKVLVIAPLRVARDTWPAEINKWEHLKGLEFSVAIGTKQERLAALRKPASVYLINRENVDWLVNKSGIPFDYDMVVIDELSSFKSYGAKRFKSLLKVRPRAKRIVGLTGTPSSNGLMDLWAEFRILDMGKRLGRYITHYRNSFFTPDKRNQQIVFSYKPLPGAEDAIYQLISDITISMESVDFLKMPECMINEVPVYLNDKEQSVYDRFREEMVLEFADEEIDAMNAAVLSGKLLQMANGAIYDDDKNTHIIHDRKLDALEDLIEGANGKPVLIAYWYNHDLERIKAKFNVREIKTSKDIKDWNNGDISVAVIHPASAGHGLNLQSGGSTLIWFGLTWSLELYQQTNARLWRQGQNETVVIHHIITKGTIDEDVMNALRRKEKTQSDLINAVKANLGKARDAV
soluble on expression in E. coli: not soluble

MGLFNNFKFKYTRAQLEIFRFSFCLLAPVAVMYYIGTDTDKKLNVPGFWPDPATLNQIPKEPYEIKAELARMKKERLEKRLRLEKKIQEEFGLDLEEEKEKIKRDLALKKG
soluble on expression in E. coli: soluble

MKMMDANEIISFIQKSEKKTPVKVYIKGDLKEVTFPETVQAFVNKKSGVLFGEWSEIKTILDENSKYIVDYVVENDRRNSAIPMLDLKGIKARIEPGAIIRDHVEIGDNAVIMMNATINIGAVIGEGSMIDMNAVLGGRATVGKNCHVGAGAVLAGVIEPPSAKPVIVEDDVVIGANVVVLEGVTVGKGAVVAAGAVVTEDVPPYTVVAGTPARVIKEIDEKTKAKTEIKQELRQLNPEK
soluble on expression in E. coli: not soluble

SASATAPAAAVPTLASPLEQLRHLAEELRLLLPRVRVGEAQETTEEFNREMFWRRLNEAAVTVSREATTLTIVFSQLPLPSPQETQKFCEQVHAAIKAFIAVYYLLPKDQGITLRKLVRGATLDIVDGMAQLMEVLSVTPTQSPENNDLISYNSVWVACQQMPQIPRDNKAAALLMLTKNVDFVKDAHEEMEQAVEECDPYSGLLNDTEENNSDNHNHEDDVLGFPSNQDLYWSEDDQELIIPCLALVRASKACLKKIRMLVAENGKKDQVAQLDDIVDISDEISPSVDDLALSIYPPMCHLTVRINSAKLVSVLKKALEITKASHVTPQPEDSWIPLLINAIDHCMNRIKELTQSELEL
soluble on expression in E. coli: soluble

MEKYEELFARIKEKAKLIDEKIFELIPEKDPRVLYEAARHYPLAGGKRVRPFVVLTSTEAVGGDPLRAIYPAVAIELIHNYSLVHDDIMDMDETRRGKPTVHRIWGVNMAILAGDLLFSKAFEAVARAEIPPEKKARVLEVIVKASNELCEGQARDLEFEKKSTVTIEEYMEMISGKTGALFEASAKVGGIIGTDNEEYIKALSSWGRNVGIAFQIWDDVLDLIADEKKLGKPVGSDIRKGKKTLIVAHFFENADEKDKQRFLKIFGKYAGDVKGRGIIEEDIKSDVMEAIDLLKKYGSIDYAAEIAKDMIKKANEALRILPKSKARMDLELLAKFIVEREY
soluble on expression in E. coli: soluble

SKNFNYTISFVGSTSNNKFVSFSNQFYEGPKYYWMSNFPLYPGNPGVLQRIEEGERIGNFYTFQYAGLDDNGGWLIYSKDGEVIPIDKGTDEDKRVVGNGLPKFTMSVTHTFRCKNLDLNLYFRGNLGYQIYDVHDLYYGLQDAAPNTNVLESAYKENRKITTGKNVHSSYFVHNGDFMKLDVATLGYTWNINNKWVEKARFYITGRNLFTISGYHRGLDKDAYCVNGMEPGLPYSKNGYYPSSRQFLFGIQLNF
soluble on expression in E. coli: not soluble

MHLLPELASHHAVSIPELLVSRDERQARQHAWLKHHPVPLVSFTVVAPGPIKDSEVTRRIFNHRVTALRALATKQGWQIQEQAALVSASGPEGMLSIAAPARDLKLATIELEHSHPLGRLWDIDVLTPEGEILSRRDYSLRLAAACCASKAQPSARVEKPIN
soluble on expression in E. coli: not soluble

MKLIGITGMPGSGKSAITKLAEKYKIVVVSMGDVVRYETLKQGMPLNPENVGNTAVKLREIYGKEAIAVPCLNYVNEKYNNEDFVIIEGIRSIYEVNYIKKHAELDIIAIHSSPKTRFERLSGRNREDDSNDWNTFVERDERELNFSIGRVISLADYMVVNEGNYMDFVNDLENTFKKIINVN
soluble on expression in E. coli: not soluble

MGSDKIHHHHHHMIQTPVIVTFANQKGGVGKTTLCVTFANYLVAKGVRVLVIDCDFQHSIMKCRKADIKKYGEEQLPYEVWSYEPNNKVEMTSLVEKLHNDPEIDVVLIDSPGSLKAEGLVPIFVNSDIIVVPFHYDLVTIPSTASFLLFLDRLRQAVGERMKAQLFIIPNLNDNRVGKRSELILWDNTRETFSNYGYVTGKIPRRADMERFSTIAALDMQYRYVSSVFDKIYFSIFDKTGPIREMELSGIQLTENLYPKSGKKKYQAETSTHIALDEAEDEEQENNSEHQHNQ
soluble on expression in E. coli: not soluble

YKIDFYRNFLVPLKVGKIKKIILDLRGNGGGMVLDARTFTDRFITKDAIFGYQRFKEDNNPFSYTPWIPCMTKTTGIGIKKEIPIVILLDNNSASMSEISTLMLKSQGKHVTVVGGYSAGATAGLGDSDQFNGGIRGKVSDYLEFYMPLLAMQDATHTVIEGIGIKPDLLVDPLTEDEVREMALSPFTHIDRTLKQAIEVLSNN
soluble on expression in E. coli: not soluble

MESPLGSDLARLVRIWRALIDHRLKPLELTQTHWVTLHNIHQLPPDQSQIQLAKAIGIEQPSLVRTLDQLEDKGLISRQTCASDRRAKRIKLTEKADALIAEMEEVIHKTRGEILAGISSEEIELLIKLIAKLEHNIMELHSHD
soluble on expression in E. coli: not soluble

SQLVECVPNFSEGKNQEVIDAISRAVAQTPGCVLLDVDSGPSTNRTVYTFVGRPEDVVEGALNAARAAYQLIDMSRHHGEHPRMGALDVCPFIPVRGVTMDECVRCAQAFGQRLAEELGVPVYLYGEAARTAGRQSLPALRAGEYEALPEKLKQAEWAPDFGPSAFVPSWGATVAGARKFLLAFNINLLSTREQAHRIALDLREQGRGKDQPGRLKKVQAIGWYLDEKNLAQVSTNLLDFEVTGLHTVFEETCREAQELSLPVVGSQLVGLVPLKALLDAAAFYCEKENLFLLQDEHRIRLVVNRLGLDSLAPFKPKERIIEYLV
soluble on expression in E. coli: soluble

MNSKSAQGLAGLRNLGNTCFMNSILQCLSNTRELRDYCLQRLYMRDLHHGSNAHTALVEEFAKLIQTIWTSSPNDVVSPSEFKTQIQRYAPRFVGYNQQDAQEFLRFLLDGLHNEVNRVTLRPKSNPENLDHLPDDEKGRQMWRKYLEREDSRIGDLFVGQLKSSLTCTDCGYCSTVFDPFWDLSLPIAKRGYPEVTLMDCMRLFTKEDVLDGDEKPTCCRCRGRKRCIKKFSIQRFPKILVLHLKRFSESRIRTSKLTTFVNFPLRDLDLREFASENTNHAVYNLYAVSNHSGTTMGGHYTAYCRSPGTGEWHTFNDSSVTPMSSSQVRTSDAYLLFYELASPPSRMAAALEHHHHHH
soluble on expression in E. coli: soluble

SLQQSAKKNAAPAPAAQPAPAPTQPQADGAQQAGWVVRCTSVSRDAPLECAMEQNAVLTKTGQTIVLINIRIAPDTRTPVALLQLPLGLNLPIGAKLQVDEGKTVDLQIQTCENRGCYASTPIAADLLAALRSGKQLKVSFQNMAKETIAIPMPLGDFAAAYDKIK
soluble on expression in E. coli: not soluble

MKKFKNILFATQGLPGHSDALEQAIQLAYNNRGQLAGLIAFPAFPADLQRYQEPYEQSYLNTLMETVEACRSQHHIHKDEVPFPLMVEHSEQPAVAIIKSALNHHIDLLIKEAEPMTHSQQGFKALDMTLLRKCPCPVWLHRPLAKPKANRRVAVAIDPITTTEQQKALALRLLELSRSIANTCDSRLHIVSCWEYYLENYLHDQVWIQVEQQQIAEEIAQAKIRHEQALRQLIDESGITGELVIHHLHGKPDELIPEWVTQENIDILVMGTLARTGIAGFVIGNTAENIVQSIECSLVALKPEGFVSPIKNE
soluble on expression in E. coli: soluble

MAGIEITVIDYYHSKINKDSKMEIKIGELPKVLNKTYLGKLNATPSMNNPVKDTQGGEKQMESMLAYIKQKGWAGESKPNFVMNRNVIGAIPSSTGVENFIVFKTNDVQVIVKTPKEKGQESEGNQMEPWKSLIYGVNFEHHCTKTANEPLPTNDAVTKAVLKAHVPRTQEGSNNSSYSILYSAQIDGIDDKRQHYEMKVLNGGLTKYHLENSSCWFYWQSVFGNCNTLIVGSRTGKQDQDPKTLTKTRERQREELDDISYVSKFVSFSFKT
soluble on expression in E. coli: soluble
